“And” between values parts separate entries of the source, which are not always exact repeats. Identical values can stand only once.
Target: ACE (angiotensin-I converting enzyme) from rabbit lung (rabbit) (UniProt P12822)
Sequence of UniProt P12822 (P12822 34-1310): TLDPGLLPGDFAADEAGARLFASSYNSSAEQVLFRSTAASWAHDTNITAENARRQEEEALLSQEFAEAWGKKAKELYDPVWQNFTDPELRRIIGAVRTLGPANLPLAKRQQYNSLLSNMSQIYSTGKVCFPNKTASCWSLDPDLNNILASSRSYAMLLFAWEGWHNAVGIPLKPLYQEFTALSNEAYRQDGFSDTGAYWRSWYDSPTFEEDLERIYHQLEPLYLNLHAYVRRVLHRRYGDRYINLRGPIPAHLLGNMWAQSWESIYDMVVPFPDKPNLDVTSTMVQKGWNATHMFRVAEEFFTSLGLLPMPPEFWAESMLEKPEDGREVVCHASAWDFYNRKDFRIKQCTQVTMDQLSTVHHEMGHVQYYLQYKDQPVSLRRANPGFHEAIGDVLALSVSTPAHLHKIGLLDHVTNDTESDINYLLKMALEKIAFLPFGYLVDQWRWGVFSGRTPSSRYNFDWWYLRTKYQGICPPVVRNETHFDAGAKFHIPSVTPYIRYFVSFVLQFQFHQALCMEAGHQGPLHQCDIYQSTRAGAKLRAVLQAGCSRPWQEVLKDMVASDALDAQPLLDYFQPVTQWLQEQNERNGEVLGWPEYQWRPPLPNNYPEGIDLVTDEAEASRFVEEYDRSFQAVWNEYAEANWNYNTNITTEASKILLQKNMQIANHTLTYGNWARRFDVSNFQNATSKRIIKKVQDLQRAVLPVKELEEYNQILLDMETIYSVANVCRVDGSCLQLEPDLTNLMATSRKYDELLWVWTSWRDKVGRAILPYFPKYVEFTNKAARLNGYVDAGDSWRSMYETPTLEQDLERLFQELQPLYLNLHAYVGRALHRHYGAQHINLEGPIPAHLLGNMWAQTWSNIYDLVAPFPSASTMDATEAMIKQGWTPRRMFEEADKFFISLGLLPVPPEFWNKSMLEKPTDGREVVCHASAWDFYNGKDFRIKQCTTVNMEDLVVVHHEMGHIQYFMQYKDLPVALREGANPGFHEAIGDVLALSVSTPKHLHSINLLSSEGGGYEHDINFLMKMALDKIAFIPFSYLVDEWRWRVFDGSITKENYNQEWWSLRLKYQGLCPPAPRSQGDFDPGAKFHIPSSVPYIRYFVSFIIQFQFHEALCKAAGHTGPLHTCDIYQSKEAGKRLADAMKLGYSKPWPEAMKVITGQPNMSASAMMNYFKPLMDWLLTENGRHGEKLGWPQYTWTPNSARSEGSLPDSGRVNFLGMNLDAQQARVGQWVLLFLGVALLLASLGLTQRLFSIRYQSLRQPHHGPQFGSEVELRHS

ACE inhibition (FAPGG hydrolysis, absorbance at 340 nm), IC50: 0.06 mg/ml and 0.144 mM
Substance: IER tripeptide

Source: article PMC7055321
